Experimental findings from US20250027068A1 are described below.

B1: VRT-50 (Fc fusion)
chain: VTSVWTKGVTPPTDFIYGEDVLHAPYKAGQGWYDITKTFNGKDNLLCGAATAGNMLHWWFDQNKEQIENYLKKHPEKQKIIFNNQELFDLKAAIDTKDSQLDSKLFEYFKEKAFPYLSTKHLGVFPDHVIDMFINGYRLSLTNHGPTPVKRGSKDKRGGIFDAVFTRGVQSKLLTNRHDFKEKTLKEISDLIKQELTEGKALGISHTYANVRINHVINLWGADFDAEGNLEAIYVTDSDTNASIGMKKYFVGVNSNGKVAISAKEIEEDNIGAQVLGLFTLSTGQDIWNQTNDKTHTCPPCPAPEAAGAPSVFLFPPKPKDTLMISRTPEVTCVVVDVSHEDPEVKFNWYVDGVEVHNAKTKPREEQQNSTYRVVSVLTVLHQDWLNGKEYKCKVSNKALKAPIEKTISKAKGQPREPQVYTLPPSRDELTKNQVSLTCLVKGFYPSDIAVEWESNGQPENNYKTTPPVLDSDGSFFLYSKLTVDKSRWQQGNVFSCSVMHEALHNHYTQKSLSLSPG
B2: VRT-53 (Fc fusion)
chain: B1 chain with D14N, I16T, K27V, G29N, F180L, E182N
B3: VRT-52 (Fc fusion)
chain: B1 chain with T38A, N40D, K42G, L101T, D102N, K104E, E107N, F180L, E182N
B4: VRT-44 (Fc fusion)
chain: SQTEDSESLQRLRDIEDFQAEKKKQNVVYTKWLDGVDVKDHDFRKIVDGNIAYYATPLLNGRGFYDINKDFNRDNDKCAAAVAANMFHYWLDRNRDNVDRFLRQNPEKHGIIELPDEQLKLSDFLNTYESDDGYRDKSKLFDFISNNFNKPVWTDKLLDNYINGYAYNYKYGRTIEDSTKNTSKINFFKEVFNEKILTNIHSIRNQNEFSVLLSEALYTGKAIGLSYGPAGLRHSLGHIISVWGADLDADGNVVAIYVTDSDDKKLTIGDERVGLKRYKISTDDEGRLRLTAYEETHNTGGQIRGLWTLDTGKQAWADYFDKTEQTGTDQAEQDKTHTCPPCPAPEAAGAPSVFLFPPKPKDTLMISRTPEVTCVVVDVSHEDPEVKFNWYVDGVEVHNAKTKPREEQQNSTYRVVSVLTVLHQDWLNGKEYKCKVSNKALKAPIEKTISKAKGQPREPQVYTLPPSRDELTKNQVSLTCLVKGFYPSDIAVEWESNGQPENNYKTTPPVLDSDGSFFLYSKLTVDKSRWQQGNVFSCSVMHEALHNHYTQKSLSLSPG
B5: VRT-47 (Fc fusion)
chain: VTSVWTKGVTPPTDFIYGEDVLHAPYKAGQGWYDITKTFNGKDDLLCGAATAGNMLHWWFDQNKEQIENYLKKHPEKQKINFNGEQMFDVKEAIDTKDSQLDSKLFEYFKEKAFPYLSTKHLGVFPDHVIDMFINGYRLSLTNHGPTPVKRGSKDPRGGIFDAVFTRGDQSKLLTNRHDLKNKTLKEISDLIKQELTEGKALGISHTYANVRINHVINLWGADFDAEGNLEAIYVTDSDSNASIGMKKYFVGVNSNGKVAISAKEIEEDNIGAQVLGLFTLSTGQDIWNQTNDKTHTCPPCPAPEAAGAPSVFLFPPKPKDTLMISRTPEVTCVVVDVSHEDPEVKFNWYVDGVEVHNAKTKPREEQQNSTYRVVSVLTVLHQDWLNGKEYKCKVSNKALKAPIEKTISKAKGQPREPQVYTLPPSRDELTKNQVSLTCLVKGFYPSDIAVEWESNGQPENNYKTTPPVLDSDGSFFLYSKLTVDKSRWQQGNVFSCSVMHEALHNHYTQKSLSLSPG
B6: VRT-49 (Fc fusion)
chain: B5 chain with D14N, I16T, K27V, G29N
B7: VRT-48 (Fc fusion)
chain: VTSVWTKGVTPPTDFRKIVDGNIAYYHAPYKAGQGWYDITKAFDGGDDLLCGAATAGNMLHWWFDQNKEQIENYLKKHPEKQKINFNGEQMFDVKEAIDTKDSQTNSELFNYFKEKAFPYLSTKHLGVFPDHVIDMFINGYRLSLTNHGPTPVKRGSKDPRGGIFDAVFTRGDQSKLLTNRHDLKNKTLKEISDLIKQELTEGKALGISHTYANVRINHVINLWGADFDAEGNLEAIYVTDSDSNASIGMKKYFVGVNSNGKVAISAKEIEEDNIGAQVLGLFTLSTGQDIWNQTNDKTHTCPPCPAPEAAGAPSVFLFPPKPKDTLMISRTPEVTCVVVDVSHEDPEVKFNWYVDGVEVHNAKTKPREEQQNSTYRVVSVLTVLHQDWLNGKEYKCKVSNKALKAPIEKTISKAKGQPREPQVYTLPPSRDELTKNQVSLTCLVKGFYPSDIAVEWESNGQPENNYKTTPPVLDSDGSFFLYSKLTVDKSRWQQGNVFSCSVMHEALHNHYTQKSLSLSPG
B8: VRT-54 (Fc fusion)
chain: VTSVWTKGVTPPTDFIKGEDVFHAPYKAGQGWYDITKTFNGKDDLLCGAATAGNMLHWWFDQNKEYIEAYLKKHPEKQKIMFGDQELLDVRKAINTKGSQKNSELFNYFRDKAFPNLSARRLGVMPDLVLDMFINGYYLNVTKTQTTDVNRTYQEKDKRGGIFDAVFTRGDQSKLLTSRHDFKEKGLKEISDLIKQELTEGKALGLSHTYANVRINHVINLWGADFDSDGNLKAIYVTDSDSNASIGMKKYFVGVNSAGKVAISAKEIKEDNIGAQVLGLFTLSTGQDIWNQTNDKTHTCPPCPAPEAAGAPSVFLFPPKPKDTLMISRTPEVTCVVVDVSHEDPEVKFNWYVDGVEVHNAKTKPREEQQNSTYRVVSVLTVLHQDWLNGKEYKCKVSNKALKAPIEKTISKAKGQPREPQVYTLPPSRDELTKNQVSLTCLVKGFYPSDIAVEWESNGQPENNYKTTPPVLDSDGSFFLYSKLTVDKSRWQQGNVFSCSVMHEALHNHYTQKSLSLSPG
B9: VRT-56 (Fc fusion)
chain: B8 chain with T13A, I16T, K17Q, K27V, G29N, F182L, E184N
B10: VRT-55 (Fc fusion)
chain: B8 chain with F182L, E184N
B11: VRT-43 (Fc fusion)
chain: QITSVWTKGVTPPTPEQFRYYNEDVFHAPYTAHQGWYDITKTFDGKDNLLCGAATAGNMLHWWFDQNKTEIEAYLSKHPEKQKIIFKNQELFDLKAAIDTKDSQTNSALFNYFRDKAFPGLSARQLGVFPDLVLDMFINGYYLNVFKTQSTDVNRPYQDKDKRGGIFDAVFTRGVQTTLLTARHDLKNKTLNDISTIIKQELTEGRALALSHTYANVRISHVINLWGADFNAEGNLEAIYVTDSDSRASIGMKKYFVGVNASGKVAISAKKIEGENIGAQVLGLFTLSSGKDIWQKLSDKTHTCPPCPAPEAAGAPSVFLFPPKPKDTLMISRTPEVTCVVVDVSHEDPEVKFNWYVDGVEVHNAKTKPREEQQNSTYRVVSVLTVLHQDWLNGKEYKCKVSNKALKAPIEKTISKAKGQPREPQVYTLPPSRDELTKNQVSLTCLVKGFYPSDIAVEWESNGQPENNYKTTPPVLDSDGSFFLYSKLTVDKSRWQQGNVFSCSVMHEALHNHYTQKSLSLSPG

Numbering of substitutions follows the chain as printed.

In the assay the target is pooled human IgG (human). Description: cell-based or functional assay.
In turn, B1 had an Enzyme Activity Endpoint Assay, Fab′2 of 8 ng/µL; an Enzyme Activity Endpoint Assay, Fc of 226 ng/µL; an Enzyme Activity Endpoint Assay, IgG of 295 ng/µL; an Enzyme Activity Endpoint Assay, scIgG of 360 ng/µL.

B2 displayed an Enzyme Activity Endpoint Assay, Fab′2 of 0 ng/µL; an Enzyme Activity Endpoint Assay, Fc of 209 ng/µL; an Enzyme Activity Endpoint Assay, IgG of 326 ng/µL; an Enzyme Activity Endpoint Assay, scIgG of 339 ng/µL.

With B3, the Enzyme Activity Endpoint Assay, Fab′2 was 6 ng/µL; the Enzyme Activity Endpoint Assay, Fc came to 213 ng/µL; the Enzyme Activity Endpoint Assay, IgG came out at 238 ng/µL; the Enzyme Activity Endpoint Assay, scIgG amounted to 311 ng/µL.

Molecule B4 registered an Enzyme Activity Endpoint Assay, Fab′2 of 0 ng/µL; an Enzyme Activity Endpoint Assay, Fc of 28 ng/µL; an Enzyme Activity Endpoint Assay, IgG of 1070 ng/µL; an Enzyme Activity Endpoint Assay, scIgG of 21 ng/µL.

Molecule B5 displayed an Enzyme Activity Endpoint Assay, Fab′2 of 168 ng/µL; an Enzyme Activity Endpoint Assay, Fc of 317 ng/µL; an Enzyme Activity Endpoint Assay, IgG of 253 ng/µL; an Enzyme Activity Endpoint Assay, scIgG of 156 ng/µL.

As for B6, the Enzyme Activity Endpoint Assay, Fab′2 was 135 ng/µL; the Enzyme Activity Endpoint Assay, Fc came out at 291 ng/µL; the Enzyme Activity Endpoint Assay, IgG turned out to be 157 ng/µL; the Enzyme Activity Endpoint Assay, scIgG stood at 131 ng/µL.

Turning to B7, the Enzyme Activity Endpoint Assay, Fab′2 amounted to 9 ng/µL; the Enzyme Activity Endpoint Assay, Fc stood at 222 ng/µL; the Enzyme Activity Endpoint Assay, IgG was determined as 134 ng/µL; the Enzyme Activity Endpoint Assay, scIgG was determined as 258 ng/µL.

In turn, B8 showed an Enzyme Activity Endpoint Assay, Fab′2 of 0 ng/µL; an Enzyme Activity Endpoint Assay, Fc of 129 ng/µL; an Enzyme Activity Endpoint Assay, IgG of 672 ng/µL; an Enzyme Activity Endpoint Assay, scIgG of 150 ng/µL.

Molecule B9 had an Enzyme Activity Endpoint Assay, Fab′2 of 0 ng/µL; an Enzyme Activity Endpoint Assay, Fc of 200 ng/µL; an Enzyme Activity Endpoint Assay, IgG of 742 ng/µL; an Enzyme Activity Endpoint Assay, scIgG of 240 ng/µL.

In the case of B10, the Enzyme Activity Endpoint Assay, Fab′2 was 0 ng/µL; the Enzyme Activity Endpoint Assay, Fc amounted to 120 ng/µL; the Enzyme Activity Endpoint Assay, IgG came out at 734 ng/µL; the Enzyme Activity Endpoint Assay, scIgG came to 109 ng/µL.

For the molecule B11, the Enzyme Activity Endpoint Assay, Fab′2 was determined as 0 ng/µL; the Enzyme Activity Endpoint Assay, Fc stood at 28 ng/µL; the Enzyme Activity Endpoint Assay, IgG turned out to be 1010 ng/µL; the Enzyme Activity Endpoint Assay, scIgG is 23 ng/µL.
